The assay deals with T1, 6-His-tagged RLIP76ΔRBD (human, UniProt Q15311 1-392).
T1 sequence: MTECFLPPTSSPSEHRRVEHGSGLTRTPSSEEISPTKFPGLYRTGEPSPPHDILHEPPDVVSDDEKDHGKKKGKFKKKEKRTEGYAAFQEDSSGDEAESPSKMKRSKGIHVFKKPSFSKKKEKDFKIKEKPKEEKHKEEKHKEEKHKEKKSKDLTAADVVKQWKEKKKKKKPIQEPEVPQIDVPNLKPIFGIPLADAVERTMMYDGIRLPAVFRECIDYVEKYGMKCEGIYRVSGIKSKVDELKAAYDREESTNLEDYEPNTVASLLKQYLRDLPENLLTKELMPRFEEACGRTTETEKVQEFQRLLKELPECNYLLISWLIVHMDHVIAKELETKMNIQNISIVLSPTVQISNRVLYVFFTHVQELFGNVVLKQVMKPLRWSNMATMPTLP
Nature of the assay: pull-down.

The values below come from paper PMC2064341 (The Journal of Cell Biology, 2006).

B1: GST–R-Ras(wt) (natural protein, human, UniProt P10301 1-218, looked up)
chain: MSSGAASGTGRGRPRGGGPGPGDPPPSETHKLVVVGGGGVGKSALTIQFIQSYFVSDYDPTIEDSYTKICSVDGIPARLDILDTAGQEEFGAMREQYMRAGHGFLLVFAINDRQSFNEVGKLFTQILRVKDRDDFPVVLVGNKADLESQRQVPRSEASAFGASHHVAYFEASAKLRLNVDEAFEQLVRAVRKYQEQELPPSPPSAPRKKGGGCPCVLL
With B1, the binding result was “binds”.
